In patent US20070219129A1, “hsp90 decoy peptides and uses thereof” (priority 2005, published 2007):
“Also recorded” adds a separate entry of the source. Ends that are not written are not given here.

How the values were obtained:
murine facialis arteries = assay: ACh-induced vasodilation of isolated, pressurized facialis arteries after acute peptide exposure; set-up: species or system C57BL/6 mice; conditions: 10 μg/mL, 10 min pre-treatment, vs vehicle control
Text: The B2 peptide was also shortened to 15 aa (AELVLEVPLEHPTLE) with the TAT PTD (RKKRRQRRR) added at the N-terminal as described by Pagano and associates.^6 (Note that the initial A residue is a linker.) This redesign made a new decoy peptide (RKKRRQRRR-AELVLEVPLEHPTLE), which we called TSB2. In designing a control peptide, TSB(Ctr) (RKKRRQRRR-AALVLAVPLAHPRLA), we reasoned that if E were important for binding, then replacing E with A would result in a peptide that would fail to bind to hsp90 or another heatshock protein essential to chaperone-dependent signaling and possibly mitochondrial function and therefore fail to impair vasodilation. To test these ideas, TSB2 and TSB(Ctr) (10 μg/mL) were incubated with separatefacialis arteries from healthy C57BL/6 male mice, whose vasodilation is mediated 100% by eNOS.^9 Ten minutes later, excess peptides were removed by changing the buffer and ACh-dose response curves of the preconstricted and pressurized vessels determined as before.^9

B16 melanoma cells = assay: Viability of B16 melanoma cells in culture (LDH release); type: cell-based; conditions: even at 100 μg/mL
[1] = molecular target: T1, heat shock protein 90 (hsp90), endogenous in bovine aortic endothelial cells (BAEC) (bovine, UniProt A0AAA9SQM8); assay: peptide at 10 ug/mL in BAEC lysate, eNOS immunoprecipitation, western blot for hsp90
[2] = molecular target: T1, heat shock protein 90 (hsp90), …; assay: eNOS immunoprecipitation from treated BAEC cultures, western blot for hsp90 (FIG. 2)

Row | Molecule | percent decrease of hsp90 association with eNOS [1] [%] | also measured
1 | RKKRRQRRR-AALVLAVPLAHPRLA [TSB(Ctr)] | – | effect on ACh-induced vasodilation (in words) (murine facialis arteries): no effect
2 | RKKRRQRRRAELVLEVPLEHPTLE [TSB2, RKKRRQRRR-AELVLEVPLEHPTLE] | – | viability of B16 melanoma cells (LDH release) (B16 melanoma cells): no significant effects; also recorded: no direct effect
3 | LPLLLQAPDEAPELFVLPPE [B1 (291-311)] | ~80 | –
4 | APELFVLPPELVLEVPLEHP [B2 (301-320)] | ~80 | –
5 | LVLEVPLEHPTLEWFAALGL [B3 (311-330)] | ~80 | –
6 | RKKRRQRRRAELVLEVPLEHPTLE [TSB2] | – | hsp90 association with eNOS relative to PEP1-treated or untreated cultures [2]: 0.25 fraction of control level
